Experimental data taken from patent publication US20220025023A1 (AC IMMUNE, published 2022).
Numbering of substitutions follows the chain as printed. Where no end group is shown, it is not given here.

T1: TDP-3 peptide (human)
T1 construct: Irrelevant control peptide; conjugated to Luminex beads in the assay; also called TDP-43 aa 310-370; irrelevant target
T1 peptide: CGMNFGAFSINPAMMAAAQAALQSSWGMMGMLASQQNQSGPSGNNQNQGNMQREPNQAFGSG

T2: TP-24 peptide (human, also: biotinylated, site not given here)
T2 construct: 15-mer of human TDP-43 from the library spanning aa 199-285; captured on streptavidin plates
T2 peptide: REFFSQYGDVMDVFI

T3: TP-25 peptide (human, also: biotinylated, site not given here)
T3 construct: 15-mer of human TDP-43 from the library spanning aa 199-285; captured on streptavidin plates
T3 peptide: VMDVFIPKPFRAFAF

T4: TDP-216 peptide (human)
T4 construct: 8-mer of human TDP-43; same ELISA method as for the biotinylated 15-mers
T4 peptide: DVMDVFIP

T5: TDP-213 peptide (human)
T5 construct: 8-mer of human TDP-43; same ELISA method as for the biotinylated 15-mers
T5 peptide: QYGDVMDV

T6: TDP-210 peptide (human)
T6 construct: 8-mer of human TDP-43; same ELISA method as for the biotinylated 15-mers
T6 peptide: FFSQYGDV

T7: TDP-214 peptide (human)
T7 construct: 8-mer of human TDP-43; same ELISA method as for the biotinylated 15-mers
T7 peptide: YGDVMDVF

T8: TDP-224 peptide (human)
T8 construct: 8-mer of human TDP-43; same ELISA method as for the biotinylated 15-mers
T8 peptide: KPFRAFAF

T9: TDP-217 peptide (human)
T9 construct: 8-mer of human TDP-43; same ELISA method as for the biotinylated 15-mers
T9 peptide: VMDVFIPK

T10: TDP-1 peptide (human)
T10 construct: Immunogen peptide; conjugated to Luminex beads in the assay; also called TDP-43 aa 212-272
T10 peptide: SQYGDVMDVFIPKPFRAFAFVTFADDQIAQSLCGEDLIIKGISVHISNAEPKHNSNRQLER

B1: ACI-7062-406E3-Ab1 (antibody, IgG2a, V domains shown)
VH: QVTLKESGPAILQPSQTLSLTCSFSGFSLTTYGIGVGWIRQPSGKGLEWLAHIWWNDNKYYNTALKSRLTVSKDTSNNQVFLKIASVDTADTATYYCARVYGNLYYFAYWGQGTTLTVSS
VL: DVLMTQTPLSLPVSLGDRASISCRSSQSIVHRSGNTYLEWYLQKPGQSPKLLIYKVSNRFSGVPDRFSGSGSGTDFTLKISRVEAEDLGVYYCFQGSHVPTFGAGTKLELKR
notes: also called 406E3D5; clone 5
B2: ACI-7062-406E3-Ab2 (antibody, IgG2a, V domains shown)
VH: B1 VH
VL: B1 VL
notes: also called 406E3G10; clone 6
B3: ACI-7062-416A11-Ab1 (antibody, IgG2a, V domains shown)
VH: B1 VH with A10G, P14S, T30S, V71I, T92A, A108G
VL: B1 VL with R32S, H98R
notes: also called 416A11B3; clone 18
B4: ACI-7062-410H3-Ab1 (antibody, IgG1, V domains shown)
VH: DVQLVESGGGLVQPGGSRRLSCAASGFTFSSFGMHWVRQAPEKGLEWVAYIRSGSDIIYYADSVKGRFTISRDNPENTLFLQMTSLRSEDTAMYYCARSGTTVPFDYWGQGTSLTVSS
VL: DIVMTQSPSSLAMSVGQKVTMSCKSSQSLLNSGNQKNYLAWYQQKPGQSPELLLYFASTRASGVPDRFIGSGSGTDFTLTISSVQAEDLADYFCQQHYSIPLTFGAGTKLELKR
notes: also called 410H3B9; clone 7
B5: ACI-7062-412A7-Ab1 (antibody, IgG2b, V domains shown)
VH: B4 VH
VL: B4 VL
notes: also called 412A7B7; clone 9

Molecular target: T11, BSA (bovine, UniProt P02769)
T11 construct: not specified; also called bovine serum albumin
T11 sequence (P02769 25-607 limits assumed): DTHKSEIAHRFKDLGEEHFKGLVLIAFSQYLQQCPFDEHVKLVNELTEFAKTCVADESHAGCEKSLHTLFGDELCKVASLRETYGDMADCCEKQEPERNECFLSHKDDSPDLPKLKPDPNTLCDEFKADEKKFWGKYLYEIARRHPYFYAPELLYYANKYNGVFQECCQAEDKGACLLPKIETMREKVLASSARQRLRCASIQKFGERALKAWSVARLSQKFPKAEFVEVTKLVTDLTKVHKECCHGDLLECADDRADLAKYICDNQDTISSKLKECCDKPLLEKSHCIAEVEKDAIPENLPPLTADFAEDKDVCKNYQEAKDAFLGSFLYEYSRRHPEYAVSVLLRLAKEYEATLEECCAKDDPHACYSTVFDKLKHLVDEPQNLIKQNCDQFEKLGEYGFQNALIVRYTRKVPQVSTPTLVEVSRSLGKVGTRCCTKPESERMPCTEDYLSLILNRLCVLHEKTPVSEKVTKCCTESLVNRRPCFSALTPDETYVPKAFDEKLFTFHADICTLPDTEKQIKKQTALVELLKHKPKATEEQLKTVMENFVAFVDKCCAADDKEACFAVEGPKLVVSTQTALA
Assay: indirect ELISA, control coat in the 15-mer series, hybridoma supernatant

Row | binding result | Binder
1 | no binding | B1
2 | no binding | B2
3 | no binding | B3
4 | no binding | B4
5 | no binding | B5

Molecular target: T1, TDP-3 peptide
Assay: Luminex bead assay, TDP-3 peptide beads (irrelevant target)

Row | binding result | Binder
6 | no binding | B1
7 | no binding | B2
8 | no binding | B3
9 | no binding | B4
10 | no binding | B5

Molecular target: T2, TP-24 peptide
Assay: indirect ELISA, biotinylated 15-mer peptide on streptavidin plate, hybridoma supernatant
Procedure: (§1) Serum-free supernatants were harvested from stable hybridomas. The supernatants containing antibodies of interest were then screened by an indirect ELISA assay to determine epitopes. Epitopes were mapped using a library of TDP-43 15-mer peptides. Briefly, 96-well streptavidin-coated 96-well ELISA plates were incubated with 5 μg/mL of biotinylated 15-mer peptides spanning the amino acids (aa) 199-285 of human TDP-43 with 9 aa offset and 6 aa overlap. Plates were washed thoroughly with 0.05% Tween-20/PBS and then blocked with 1% bovine serum albumin (BSA) in 0.05% Tween-20/PBS for 1 hour at 37° C. The antibody contained in the hybridoma supernatant was then added at the indicated dilutions, and incubated for 2 hours at 37° C. after which the plates were washed as described previously. An AP-conjugated anti-mouse IgG secondary antibody (Jackson ImmunoResearch Laboratories, United Kingdom) was added at 1/1000 dilution in 0.05% Tween-20/PBS for 1 hour at 37° C. After the final wash, plates were incubated with pNPP (Sigma-Aldrich, Switzerland) an AP substrate solution, and read at 405 nm using an ELISA plate reader (Tecan).

Row | OD | Binder
11 | 3 O.D. (405 nm) | B1
12 | 3.4 O.D. (405 nm) | B2
13 | 2.9 O.D. (405 nm) | B3
14 | 3.8 O.D. (405 nm) | B4
15 | 4 O.D. (405 nm) | B5

Molecular target: T3, TP-25 peptide
Assay: as above
Procedure: as §1

Row | OD | Binder
16 | 1 O.D. (405 nm) | B1
17 | 0.9 O.D. (405 nm) | B2
18 | 0.9 O.D. (405 nm) | B3
19 | 0.8 O.D. (405 nm) | B4
20 | 1.4 O.D. (405 nm) | B5

Molecular target: T12, recombinant human full-length TDP-43 (human, UniProt Q13148 1-414)
T12 construct: Recombinant full-length protein; also called FL TDP-43; recFL TDP-43
T12 sequence (Q13148 whole entry): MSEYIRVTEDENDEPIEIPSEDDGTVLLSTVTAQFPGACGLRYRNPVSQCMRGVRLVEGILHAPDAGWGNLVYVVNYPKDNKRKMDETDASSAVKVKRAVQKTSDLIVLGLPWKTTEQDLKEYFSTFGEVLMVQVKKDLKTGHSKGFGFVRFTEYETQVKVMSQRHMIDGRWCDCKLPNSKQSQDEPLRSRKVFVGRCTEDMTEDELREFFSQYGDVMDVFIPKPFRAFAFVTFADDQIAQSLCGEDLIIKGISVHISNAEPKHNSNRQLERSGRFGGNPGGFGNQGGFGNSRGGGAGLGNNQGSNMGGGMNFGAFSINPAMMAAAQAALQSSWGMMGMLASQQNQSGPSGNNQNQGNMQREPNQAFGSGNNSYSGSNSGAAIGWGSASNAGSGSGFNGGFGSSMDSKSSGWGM
Assay: Luminex bead assay, antibody serial dilution, FL TDP-43 beads

Row | EC50 [nM] | Binder
21 | < 0.01 | B1
22 | 0.01 | B2
23 | 0.015 | B3
24 | 0.03 | B4
25 | 0.03 | B5

Molecular target: T4, TDP-216 peptide
Assay: indirect ELISA, 8-mer peptide library
Procedure, shortened: (§2)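 Hybridoma supernatant antibodies were tested by indirect ELISA on streptavidin-captured biotinylated 8-mer peptides with 7 aa overlap spanning human TDP-43 aa 210–231. Antibody binding was 2 h at 37 °C, then AP-conjugated anti-mouse IgG (1/1000, 1 h, 37 °C) was added. Read-out was pNPP absorbance at 405 nm.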

Row | binding result | Binder
26 | no binding | B1
27 | no binding | B2
28 | no binding | B3

Molecular target: T5, TDP-213 peptide
Assay: indirect ELISA, 8-mer peptide library
Procedure, shortened: as §2

Row | binding result | Binder
29 | no binding | B1
30 | no binding | B2
31 | no binding | B3
32 | no binding | B4
33 | no binding | B5

Molecular target: T6, TDP-210 peptide
Assay: indirect ELISA, 8-mer peptide library
Procedure, shortened: as §2

Row | binding result | Binder
34 | no binding | B1
35 | no binding | B2
36 | no binding | B3
37 | no binding | B4
38 | no binding | B5

Molecular target: T7, TDP-214 peptide
Assay: indirect ELISA, 8-mer peptide library
Procedure, shortened: as §2

Row | binding result | Binder
39 | no binding | B1
40 | no binding | B2
41 | no binding | B3
42 | no binding | B4
43 | no binding | B5

Molecular target: T8, TDP-224 peptide
Assay: indirect ELISA, 8-mer peptide library
Procedure, shortened: as §2

Row | binding result | Binder
44 | no binding | B1
45 | no binding | B2
46 | no binding | B3
47 | no binding | B4
48 | no binding | B5

Molecular target: T9, TDP-217 peptide
Assay: indirect ELISA, 8-mer peptide library
Procedure, shortened: as §2

Row | binding result | Binder
49 | no binding | B1
50 | no binding | B2
51 | no binding | B3
52 | no binding | B4
53 | no binding | B5

Molecular target: T13, aggregated recombinant human FL TDP-43 (human, UniProt Q13148 1-414)
T13 construct: also called TDP-43 aggregates
T13 sequence (Q13148 whole entry): as above
Assay: SPR avidity (Biacore T200), aggregated TDP-43 immobilised, antibody as analyte, 1:1 model
Procedure: Avidity measurements were performed on an SPR instrument (Biacore T200, GE Healthcare Life Sciences) using CM5 Series S sensor chips. Recombinant human FL TDP-43 monomers or aggregated recombinant human FL TDP-43 was immobilized on a CM5 chip using amine coupling, injecting at a flow rate of 5 μl/min for 420 seconds. Conditions were optimized so that less than 200 RU protein was immobilized. Binding of the antibodies and the control antibody (2E2-D3) were obtained by injecting at: 1.37, 4.11, 12.33, 37, 111, and 333 nM in 1×PBS P+ at a flow rate of 50 μl/min for 90 s contact time and 600 s dissociation phase, with three regeneration cycles of the ligand surface by 10 mM Glycine-HCl (pH 1.7). Kinetics were analyzed using a 1:1 fitting model (see FIG. 8).

Row | Kd [nM] | Binder
54 | 0.2 | B1
55 | 0.4 | B2
56 | 1.2 | B3
57 | 19.2 | B4
58 | 0.3 | B5

Molecular target: T10, TDP-1 peptide
Assay: Luminex bead assay, antibody serial dilution, TDP-1 peptide beads

Row | EC50 [nM] | Binder
59 | < 0.01 | B1
60 | < 0.01 | B2
61 | < 0.01 | B3
62 | < 0.01 | B4
63 | < 0.01 | B5
